From PMC5511352, “Structural insights into the mycobacteria transcription initiation complex from analysis of X-ray crystal structures”

Target: T1, RNAP alpha subunit C-terminal domain (alphaCTD, symmetry-related) (Mycobacterium smegmatis (mc2155), UniProt A0QSL8 251-350)
T1 sequence: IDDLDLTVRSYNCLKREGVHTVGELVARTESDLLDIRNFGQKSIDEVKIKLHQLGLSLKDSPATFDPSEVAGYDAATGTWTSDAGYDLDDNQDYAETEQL
Test: X-ray crystallography (2.76 A); alphaCTD of symmetry-related complex; A/T-rich region -29 to -24; Crystallization: 0.1 M Bis-Tris pH 6.0, 0.2 M Li2SO4 (printed LiSO4), 16% PEG 3350, 2.5% ethylene glycol, 22 C; protein in 20 mM Tris-HCl pH 8, 100 mM K-glutamate, 10 mM MgCl2, 1 mM DTT
Settings: protein: native; upstream fork (ds/ss junction)

B1: us-fork promoter fragment (mixed)
DNA 1: GCTTGACAAAAGTGTTAAATTGTGCTATACT
DNA 2: AGCACAATTTAACACTTTTGTCAAGC
  binding result: binds
